Blank lines part the entries; values can stand above or below the molecule they belong to. Where no end group is shown, it is not given here.
Assays:
[1] = biological target: FGFR2^C3 tagged with GFP or RFP; experiment: FRET or BRET; FLIM of GFP- and RFP-tagged FGFR2 co-expressed in serum-starved HEK293T cells, fixed
[2] = biological target: FGFR2 juxtamembrane region (407-462), labelled with Atto 488 (UniProt P21802); experiment: MST; JM labelled with Atto 488, serial dilutions of KD titrated, 25 °C; 20 mM HEPES, 150 mM NaCl, 1 mM TCEP, 0.01% Tween 20, pH 7.5; the text calls the constant of KD^pY1 apparent (Kd,app)
[3] = biological target: FGFR2 C-terminal tail of the C1 isoform, untagged (the last 58 residues of FGFR2) (UniProt P21802); experiment: SPR; untagged CT immobilised on a CM4 chip by amine coupling (about 200 RU); JM-KD proteins of different phosphorylation level injected at 30 µl/min, then buffer wash; steady-state fitting
[4] = biological target: JM-KD^pY1 (mono-phosphorylated juxtamembrane region plus kinase domain) (UniProt P21802); experiment: SPR; apparent dimerization constant of JM-KD^pY1 (Supplementary Fig. 2c)
[5] = biological target: CT^C1 (C-terminal tail of FGFR2IIIb C1 isoform, GST cleaved) (UniProt P21802); experiment: MST; CT^C1 labeled with Atto488, titrated with unlabeled JM-KD^pY1 or KD^pY1, 25 °C
[6] = biological target: JM-KD^pY1 (mono-phosphorylated juxtamembrane region plus kinase domain) (UniProt P21802); experiment: MST; Atto488-labeled protein titrated with the same unlabeled protein, 25 °C; apparent dimerization constant, dimer to monomers
[7] = biological target: CT^C1 (C-terminal tail of FGFR2IIIb C1 isoform, GST cleaved) (UniProt P21802); experiment: SPR; BIAcore T100, CT^C1 immobilised on CM4 chip by amine coupling to about 200 RU, analytes at 30 µl/min
[8] = biological target: FGFR2^C2 tagged with GFP or RFP; experiment: FRET or BRET; FLIM of GFP- and RFP-tagged FGFR2 co-expressed in serum-starved HEK293T cells, fixed
[9] = biological target: JM (juxtamembrane region of FGFR2IIIb, as used in MST and NMR); experiment: MST; JM labeled with Atto 488, serial dilutions of KD titrated, 25 °C, 20 mM HEPES, 150 mM NaCl, 1 mM TCEP, 0.01% Tween 20, pH 7.5; apparent
[10] = biological target: KD^pY1 (mono-phosphorylated FGFR2IIIb kinase domain) (UniProt P21802); experiment: MST; Atto488-labeled protein titrated with the same unlabeled protein, 25 °C; apparent dimerization constant, dimer to monomers
[11] = biological target: T1, FGFR2 kinase domain, mono-phosphorylated on Y657 (UniProt P21802-3 465-764, Y467F (worked out from the printed order of phosphorylation) | Y587F (worked …, phosphotyrosine at 657)); experiment: MST; synthetic JM or CT peptides in serial dilution against KD^pY1, 25 °C; 20 mM HEPES, 150 mM NaCl, 1 mM TCEP, 0.01% Tween 20, pH 7.5; conditions: both partners purified
T1 construct: FGFR2 (IIIb isoform) kinase domain, residues 465-764; numbers count on: FGFR2IIIb (C1 isoform, 822 residues); also called KD^pY1; source: E. coli BL21(DE3), purified (Talon, Superdex 75)

[12] = biological target: T2, FGFR2 C-terminal tail of the C1 isoform, untagged, labelled with Atto 488 (UniProt P21802-3 765-822, Atto 488 dye label); experiment: MST; CT labelled with Atto 488 (100 nM), 2-fold serial dilutions of JM peptides, 25 °C; 20 mM HEPES, 150 mM NaCl, 1 mM TCEP, 0.01% Tween 20, pH 7.5; conditions: both partners purified
T2 construct: FGFR2 (IIIb, C1 isoform) C-terminal tail, the last 58 residues of FGFR2; numbers count on: FGFR2IIIb (C1 isoform, 822 residues); also called CT^C1; source: E. coli BL21(DE3), purified as GST fusion, GST removed with thrombin
T2 sequence (looked up): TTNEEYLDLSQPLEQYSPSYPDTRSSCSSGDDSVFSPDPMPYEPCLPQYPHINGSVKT

[13] = biological target: T1, FGFR2 kinase domain, …; experiment: MST; synthetic JM or CT peptides in serial dilution against KD^pY1, 25 °C; 20 mM HEPES, 150 mM NaCl, 1 mM TCEP, 0.01% Tween 20, pH 7.5; conditions: both partners purified; remark: listed apart in the source
[14] = biological target: T3, FGFR2 juxtamembrane region (407-462), labelled with Atto 488 (UniProt P21802-3 407-462, Atto 488 dye label); experiment: MST; JM labelled with Atto488 (100 nM), 2-fold serial dilutions of CT peptides, 25 °C; 20 mM HEPES, 150 mM NaCl, 1 mM TCEP, 0.01% Tween 20, pH 7.5; conditions: both partners purified
T3 construct: FGFR2 (IIIb isoform) juxtamembrane region, residues 407-462; numbers count on: FGFR2IIIb (C1 isoform, 822 residues); also called JM; 407Juxtamembrane region462; source: synthetic peptide, bought: Genscript
T3 sequence (looked up): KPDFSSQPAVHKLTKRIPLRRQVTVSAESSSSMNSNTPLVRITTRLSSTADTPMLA

[15] = biological target: KD^pY1 (mono-phosphorylated FGFR2IIIb kinase domain) (UniProt P21802); experiment: MST; peptide fragments of CT against KD^pY1 (Supplementary Table 4, Supplementary Fig. 3a)
[16] = biological target: JM (juxtamembrane region of FGFR2IIIb, as used in MST and NMR); experiment: MST; JM labeled with Atto 488, two-fold serial dilution of CT titrated
[17] = biological target: T4, FGFR2 JM-KD, phosphorylation state pY5 (UniProt P21802-3 414-764, Y734F (worked out from the printed order of phosphorylation), phosphotyrosine at 657, 587, 467, 589 and 658); experiment: SPR; untagged CT immobilised on a CM4 chip by amine coupling (about 200 RU); JM-KD proteins of different phosphorylation level injected at 30 µl/min, then buffer wash; steady-state fitting; conditions: both partners purified
T4 construct: numbers count on: FGFR2IIIb (C1 isoform, 822 residues); also called JM-KD^pY5; source: E. coli BL21(DE3), purified (Talon, Superdex 75)

[18] = biological target: T5, FGFR2 JM-KD wild type, phosphorylated (UniProt P21802-3 414-764, phosphotyrosines (phosphorylated wild type; sites not listed)); experiment: as above; conditions: both partners purified
T5 construct: numbers count on: FGFR2IIIb (C1 isoform, 822 residues); also called JM-KD^pWT; JM-KD^pYWT; source: E. coli BL21(DE3), purified (Talon, Superdex 75)

[19] = biological target: T6, FGFR2 JM-KD, phosphorylation state pY2 (UniProt P21802-3 414-764, Y467F (worked out from the printed order of phosphorylation) | Y589F (worked …, phosphotyrosine at 657 and 587)); experiment: as above; conditions: both partners purified
T6 construct: numbers count on: FGFR2IIIb (C1 isoform, 822 residues); also called JM-KD^pY2; source: E. coli BL21(DE3), purified (Talon, Superdex 75)

[20] = biological target: T7, FGFR2 JM-KD, phosphorylation state pY3 (UniProt P21802-3 414-764, Y589F (worked out from the printed order of phosphorylation) | Y658F (worked …, phosphotyrosine at 657, 587 and 467)); experiment: as above; conditions: both partners purified
T7 construct: numbers count on: FGFR2IIIb (C1 isoform, 822 residues); also called JM-KD^pY3; source: E. coli BL21(DE3), purified (Talon, Superdex 75)

FGFR2 JM-KD Y657/658F = biological target: T8, FGFR2 JM-KD Y657/658F (UniProt P21802-3 414-764, Y657/658F | Y657/658F); experiment: as above; conditions: both partners purified
T8 construct: numbers count on: FGFR2IIIb (C1 isoform, 822 residues); source: E. coli BL21(DE3), purified (Talon, Superdex 75)

[21] = biological target: T9, FGFR2 JM-KD, phosphorylation state pY4 (UniProt P21802-3 414-764, Y658F (worked out from the printed order of phosphorylation) | Y734F (worked …, phosphotyrosine at 657, 587, 467 and 589)); experiment: as above; conditions: both partners purified
T9 construct: numbers count on: FGFR2IIIb (C1 isoform, 822 residues); also called JM-KD^pY4; source: E. coli BL21(DE3), purified (Talon, Superdex 75)
T9 sequence (P21802 413-763 Y657F/Y733F): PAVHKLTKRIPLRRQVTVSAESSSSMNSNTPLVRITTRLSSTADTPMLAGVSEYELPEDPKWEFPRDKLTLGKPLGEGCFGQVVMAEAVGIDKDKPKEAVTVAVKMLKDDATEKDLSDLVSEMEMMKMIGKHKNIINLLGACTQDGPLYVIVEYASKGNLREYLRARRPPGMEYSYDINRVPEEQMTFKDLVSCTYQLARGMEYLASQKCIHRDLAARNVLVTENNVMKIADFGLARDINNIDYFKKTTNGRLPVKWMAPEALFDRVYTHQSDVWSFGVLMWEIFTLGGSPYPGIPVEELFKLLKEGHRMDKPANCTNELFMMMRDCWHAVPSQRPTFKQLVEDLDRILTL

T1 sequence (P21802 464-763 Y466F/Y586F/Y588F/Y657F/Y733F): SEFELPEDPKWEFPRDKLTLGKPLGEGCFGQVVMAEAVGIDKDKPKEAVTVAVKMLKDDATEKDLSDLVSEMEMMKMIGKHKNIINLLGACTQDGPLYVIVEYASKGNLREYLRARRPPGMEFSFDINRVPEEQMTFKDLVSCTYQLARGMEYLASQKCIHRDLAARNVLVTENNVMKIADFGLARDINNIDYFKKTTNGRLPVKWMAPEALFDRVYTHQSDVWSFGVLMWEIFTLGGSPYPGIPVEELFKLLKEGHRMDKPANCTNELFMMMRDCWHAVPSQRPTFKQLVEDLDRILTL
T7 sequence (P21802 413-763 Y588F/Y657F/Y733F): as the sequence (P21802 413-763 Y657F/Y733F) above, with Y176F counted along it
T5 sequence (P21802 413-763): as the sequence (P21802 413-763 Y657F/Y733F) above, with F245Y, F321Y counted along it
T4 sequence (P21802 413-763 Y733F): as the sequence (P21802 413-763 Y657F/Y733F) above, with F245Y counted along it
T6 sequence (P21802 413-763 Y466F/Y588F/Y657F/Y733F): as the sequence (P21802 413-763 Y657F/Y733F) above, with Y54F, Y176F counted along it
T8 sequence (P21802 other isoform, or with tags, fused parts or gaps Y657/658F | Y657/658F | Y657/658F | Y657/658F): as the sequence (P21802 413-763 Y657F/Y733F) above, with Y244F, F321Y counted along it

Molecule: FGFR2 JM-KD, phosphorylation state pY6 (from UniProt P21802-3 414-764) (domain or fragment)
Kd [3]: 4.63 µM

B1: CT peptide 808-822 (peptide)
peptide: PCLPQYPHINGSVKT
notes: FGFR2 (IIIb, C1 isoform) C-terminal tail, residues 808-822; numbers count on: FGFR2IIIb (C1 isoform, 822 residues); also called CT^808-822; source: synthetic peptide, bought: Genscript
Kd [11]: 257 ± 39.2 µM

B2: CT peptide 808-819 (peptide)
peptide: PCLPQYPHINGS
notes: numbers count on: FGFR2IIIb (C1 isoform, 822 residues); also called 808PCLPQYPHINGS819; source: synthetic peptide, bought: Genscript
Kd [11]: 255 ± 37.9 µM

B5: CT peptide 808-815 (peptide)
peptide: PCLPQYPH
notes: FGFR2 (IIIb, C1 isoform) C-terminal tail, residues 808-815; numbers count on: FGFR2IIIb (C1 isoform, 822 residues); also called CT^808-815; source: synthetic peptide, bought: Genscript
Kd [11]: 291 ± 21.4 µM | Kd [14]: 56.6 ± 5.5 µM

B9: CT peptide 801-815 (peptide)
peptide: PDPMPYEPCLPQYPH
notes: numbers count on: FGFR2IIIb (C1 isoform, 822 residues); source: synthetic peptide, bought: Genscript
Kd [15]: 25.9 µM | Kd [11]: 25.8 ± 5.4 µM | Kd [14]: 63.6 ± 6.5 µM

B10: CT peptide 815-822 (peptide)
peptide: HINGSVKT
notes: FGFR2 (IIIb, C1 isoform) C-terminal tail, residues 815-822; numbers count on: FGFR2IIIb (C1 isoform, 822 residues); also called CT^815-822; source: synthetic peptide, bought: Genscript
Kd [11]: 426 ± 42.5 µM

B11: CT^C1 (C-terminal tail of FGFR2IIIb C1 isoform, GST cleaved) (domain or fragment)
chain: T2 sequence (looked up)
modifications: cysteine pairing not given here; also: Atto488 label (MST), place not given here, 15N-labeled (NMR)
Kd [16]: 20.2 µM

B12: FGFR2 C-terminal tail of the C1 isoform, untagged (the last 58 residues of FGFR2) (domain or fragment, UniProt P21802-3 765-822, looked up)
chain: T2 sequence (looked up)
notes: FGFR2 (IIIb, C1 isoform) C-terminal tail, the last 58 residues of FGFR2; numbers count on: FGFR2IIIb (C1 isoform, 822 residues); Unlabelled form: immobilised by amine coupling in SPR; added as 'CT' in the steady-state FRET; also called CT^C1; source: E. coli BL21(DE3), purified as GST fusion, GST removed with thrombin
Kd [17]: 1.6 µM | Kd [18]: 2.31 µM | Kd [19]: 4.08 µM | Kd [20]: 3.27 µM | Kd (FGFR2 JM-KD Y657/658F): 5.68 µM | Kd [21]: 7.87 µM

Further lines, results first:

percent of molecules showing interaction [1]: 26%
Molecule: FGFR2^C3 tagged with GFP or RFP (receptor)

Kd [2]: 20.5 µM
Molecule: FGFR2 kinase domain, phosphorylation state pY6 (from UniProt P21802-3 465-764) (domain or fragment)

Kd [4]: 3.07 µM | Kd [5]: 0.304 µM | Kd [6]: 3.46 µM | Kd [7]: 0.16 µM
Molecule: JM-KD^pY1 (mono-phosphorylated juxtamembrane region plus kinase domain) (from UniProt P21802-3 414-764) (domain or fragment)

percent of molecules showing dimerization above the control threshold [8]: 16%
Molecule: FGFR2^C2 tagged with GFP or RFP (receptor)

Kd [9]: 2.51 µM | Kd [5]: 3.75 µM | Kd [10]: 0.112 µM
Molecule: KD^pY1 (mono-phosphorylated FGFR2IIIb kinase domain) (from UniProt P21802-3 465-764) (domain or fragment)

Kd [12]: 25.4 ± 3.26 µM
B3: JM peptide 449-462 (peptide)
peptide: TTRLSSTADTPMLA
notes: as for B9

Kd [13]: 36.8 ± 6.23 µM
B4: JM peptide 414-430 (peptide)
peptide: PAVHKLTKRIPLRRQVT
notes: as for B9

Kd [12]: 372 ± 30.3 µM
B6: JM peptide 439-452 (peptide)
peptide: MNSNTPLVRITTRL
notes: FGFR2 (IIIb isoform) juxtamembrane region, residues 439-452; numbers count on: FGFR2IIIb (C1 isoform, 822 residues); source: synthetic peptide, bought: Genscript

Kd [12]: 3.23 ± 0.326 µM
B7: JM peptide 429-442 (peptide)
peptide: VTVSAESSSSMNSN
notes: as for B9

Kd [13]: 105 ± 7.37 µM | Kd [12]: 200 ± 13.7 µM
B8: JM peptide 407-420 (peptide)
peptide: KPDFSSQPAVHKLT
notes: FGFR2 (IIIb isoform) juxtamembrane region, residues 407-420; numbers count on: FGFR2IIIb (C1 isoform, 822 residues); source: synthetic peptide, bought: Genscript

Reference: paper PMC10349056, “The combined action of the intracellular regions regulates FGFR2 kinase activity” (Communications Biology, 2023)
